Assay results as given in US20260115256A1 (HANGZHOU SCIWIND BIOSCIENCES, published 2026).
*1 amine or outer side, *2 acyl side, *3 side chain or, on linkers, in order; H or OH if unused. Bridges are numbered along the chain shown (N, C = ends). Where no end group is shown, it is not given here. Side-chain parts run from the residue outwards. [ ]: non-standard residue; d: D form. The star is where a group is joined. C20 diacid = O=C(O)CCCCCCCCCCCCCCCCCCC(=O)*; C18 diacid = O=C(O)CCCCCCCCCCCCCCCCC(=O)*; γGlu = O=C(O)[C@H](CCC(=O)[*:2])N[*:1]; Hyp = O=C(O)[C@@H]1C[C@@H](O)CN1; AEEA = NCCOCCOCC(=O)O

T1: human amylin receptor (AMY3) on CHO-K1/Ga15/AMY3 cells (human, UniProt P30988 25-474; O60896 24-148)
T1 sequence (looked up) 1: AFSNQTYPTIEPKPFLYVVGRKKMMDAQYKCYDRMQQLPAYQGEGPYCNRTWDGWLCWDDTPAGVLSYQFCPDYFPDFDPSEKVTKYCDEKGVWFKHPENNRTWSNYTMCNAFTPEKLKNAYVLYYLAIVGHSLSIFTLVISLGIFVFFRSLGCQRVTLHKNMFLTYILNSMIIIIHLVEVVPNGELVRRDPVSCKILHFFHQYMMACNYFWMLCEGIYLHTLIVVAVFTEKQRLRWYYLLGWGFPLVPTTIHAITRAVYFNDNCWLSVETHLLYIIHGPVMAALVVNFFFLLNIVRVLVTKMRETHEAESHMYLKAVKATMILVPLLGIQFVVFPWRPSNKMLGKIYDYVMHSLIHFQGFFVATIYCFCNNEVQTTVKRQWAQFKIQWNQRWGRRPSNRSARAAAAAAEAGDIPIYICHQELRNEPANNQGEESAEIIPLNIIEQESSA
T1 sequence (looked up) 2: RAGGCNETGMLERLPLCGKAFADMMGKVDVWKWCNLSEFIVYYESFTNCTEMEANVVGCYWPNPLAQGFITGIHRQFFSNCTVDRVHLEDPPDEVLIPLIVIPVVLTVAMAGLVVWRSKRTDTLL

B1: PD122 (peptide)
peptide: {C20 diacid-γGlu-AEEA}-KCNTATCATQRLADFLRHSSNNLGPILPPTNVGSNT[Hyp]-NH2
modifications: disulfide 2-7 (inferred); not fully specified; printed as KCNTATCATQRLADFLRHSSNNLGPILPPTNVGSNT-trans-Hyp-NH2
B2: PD123 (peptide)
peptide: {C20 diacid-γGlu-AEEA-AEEA}-KCNTATCATQRLADFLRHSSNNLGPILPPTNVGSNT[Hyp]-NH2
modifications: disulfide 2-7 (inferred); not fully specified; printed as KCNTATCATQRLADFLRHSSNNLGPILPPTNVGSNT-trans-Hyp-NH2
B3: PD124 (peptide)
peptide: {C18 diacid-γGlu}-KCNTATCATQRLADFLRHSSNNLGPILPPTNVGSNT[Hyp]-NH2
modifications: disulfide 2-7 (inferred); not fully specified; printed as KCNTATCATQRLADFLRHSSNNLGPILPPTNVGSNT-trans-Hyp-NH2

The binders below were run against T1, human amylin receptor (AMY3) on … (assay: cell-based or functional assay).
RCNTATCATQRLADFLRHSSNNLGK([AEEA-AEEA-γGlu-C20 diacid])ILPPTNVGSNT[Hyp]-NH2 (disulfide 2-7 (inferred)) [PD103] was tested, and the “EC50, CRE-luciferase assay” value was 0.033 nM.
RCNTATCATQRLADFLRHSSNNLGK([γGlu-C18 diacid])ILPPTNVGSNT[Hyp]-NH2 (disulfide 2-7 (inferred)) [PD104] was tested, and the “EC50, CRE-luciferase assay” value was 0.011 nM.
With RCNTATCATQRLADFLRHSSNNLGK([AEEA-AEEA-γGlu-C18 diacid])ILPPTNVGSNT[Hyp]-NH2 (disulfide 2-7 (inferred)) [PD105] the “EC50, CRE-luciferase assay” value was 0.033 nM.
For RCNTATCATQRLADFLRHSSNNLK([AEEA-γGlu-C20 diacid])PILPPTNVGSNT[Hyp]-NH2 (disulfide 2-7 (inferred)) [PD106], the “EC50, CRE-luciferase assay” value was 0.026 nM.
For RCNTATCATQRLADFLRHSSNNLK([γGlu-C18 diacid])PILPPTNVGSNT[Hyp]-NH2 (disulfide 2-7 (inferred)) [PD107], the “EC50, CRE-luciferase assay” value was 0.027 nM.
RCNTATCATQRLADFLRHSSNNLK([AEEA-γGlu-C18 diacid])PILPPTNVGSNT[Hyp]-NH2 (disulfide 2-7 (inferred)) [PD108] was tested, and the “EC50, CRE-luciferase assay” value was 0.028 nM.
For RCNTATCATQRLADFLRHSSNNLK([AEEA-AEEA-γGlu-C18 diacid])PILPPTNVGSNT[Hyp]-NH2 (disulfide 2-7 (inferred)) [PD109], the “EC50, CRE-luciferase assay” value was 0.01 nM.
In the case of RCNTATCATQRLAEFLRHSSNNLK([γGlu-C20 diacid])PILPPTNVGSNTP-NH2 (disulfide 2-7 (inferred)) [PD009], the “EC50, CRE-luciferase assay” value is reported as 0.067 nM.
RCNTATCATQRLADFLRHSSNNK([AEEA-γGlu-C20 diacid])GPILPPTNVGSNT[Hyp]-NH2 (disulfide 2-7 (inferred)) [PD110] was tested, and the “EC50, CRE-luciferase assay” value was 0.039 nM.
With RCNTATCATQRLADFLRHSSNNK([AEEA-γGlu-C18 diacid])GPILPPTNVGSNT[Hyp]-NH2 (disulfide 2-7 (inferred)) [PD111] the “EC50, CRE-luciferase assay” value was 0.008 nM.
RCNTATCATQRLADFLRHSSNK([AEEA-γGlu-C20 diacid])LGPILPPTNVGSNT[Hyp]-NH2 (disulfide 2-7 (inferred)) [PD112] was tested, and the “EC50, CRE-luciferase assay” value was 0.03 nM.
For RCNTATCATQRLADFLRHSSNK([AEEA-γGlu-C18 diacid])LGPILPPTNVGSNT[Hyp]-NH2 (disulfide 2-7 (inferred)) [PD113], the “EC50, CRE-luciferase assay” value was 0.017 nM.
In the case of RCNTATCATQRLADFLRHSSK([AEEA-γGlu-C20 diacid])NLGPILPPTNVGSNT[Hyp]-NH2 (disulfide 2-7 (inferred)) [PD114], the “EC50, CRE-luciferase assay” value is reported as 0.029 nM.
RCNTATCATQRLADFLRHSSK([AEEA-γGlu-C18 diacid])NLGPILPPTNVGSNT[Hyp]-NH2 (disulfide 2-7 (inferred)) [PD115] was tested, and the “EC50, CRE-luciferase assay” value was 0.011 nM.
For RCNTATCATQRLADFLRHSK([AEEA-γGlu-C20 diacid])NNLGPILPPTNVGSNT[Hyp]-NH2 (disulfide 2-7 (inferred)) [PD116], the “EC50, CRE-luciferase assay” value was 0.033 nM.
In the case of RCNTATCATQRLADFLRHSK([AEEA-γGlu-C18 diacid])NNLGPILPPTNVGSNT[Hyp]-NH2 (disulfide 2-7 (inferred)) [PD117], the “EC50, CRE-luciferase assay” value is reported as 0.014 nM.
For RCNTATCATQRLADFLRHK([AEEA-γGlu-C20 diacid])SNNLGPILPPTNVGSNT[Hyp]-NH2 (disulfide 2-7 (inferred)) [PD118], the “EC50, CRE-luciferase assay” value was 0.032 nM.
For RCNTATCATQRLADFLRHK([AEEA-γGlu-C18 diacid])SNNLGPILPPTNVGSNT[Hyp]-NH2 (disulfide 2-7 (inferred)) [PD119], the “EC50, CRE-luciferase assay” value was 0.024 nM.
In the case of RCNTATCATQRLAEFLRHSSNNLK([γGlu-C20 diacid])PILPPTNVGSNTY-NH2 (disulfide 2-7 (inferred)) [PD017], the “EC50, CRE-luciferase assay” value is reported as 0.772 nM.
For RCNTATCATQRLADFLRHSSNNLGK([AEEA-γGlu-C20 diacid])ILPPTNVGSNT[Hyp]-NH2 (disulfide 2-7 (inferred)) [PD120], the “EC50, CRE-luciferase assay” value was 0.023 nM.
In the case of RCNTATCATQRLADFLRHSSNNLGK([AEEA-γGlu-C18 diacid])ILPPTNVGSNT[Hyp]-NH2 (disulfide 2-7 (inferred)) [PD121], the “EC50, CRE-luciferase assay” value is reported as 0.018 nM.
B1 was tested, and the “EC50, CRE-luciferase assay” value was 0.048 nM.
B2 was tested, and the “EC50, CRE-luciferase assay” value was 0.068 nM.
For B3, the “EC50, CRE-luciferase assay” value was 0.008 nM.
With {C18 diacid-γGlu-AEEA}-KCNTATCATQRLADFLRHSSNNLGPILPPTNVGSNT[Hyp]-NH2 (disulfide 2-7 (inferred)) [PD125] the “EC50, CRE-luciferase assay” value was 0.01 nM.
In the case of {C18 diacid-γGlu-AEEA-AEEA}-KCNTATCATQRLADFLRHSSNNLGPILPPTNVGSNT[Hyp]-NH2 (disulfide 2-7 (inferred)) [PD126], the “EC50, CRE-luciferase assay” value is reported as 0.028 nM.
With {C20 diacid-γGlu}-KCNTATCATQRLANFLVHSSNNFGPILPPTNVGSNTY-NH2 (ends and bridges not checked) [PD156] the “EC50, CRE-luciferase assay” value was 0.029 nM.
With {C20 diacid-γGlu}-KCNTATCATQRLADFLRHSSNNLRPILPPTNVGSNT[Hyp]-NH2 (disulfide 2-7 (inferred)) [PD158] the “EC50, CRE-luciferase assay” value was 0.022 nM.
{C20 diacid-γGlu}-KCNTATCATQRLADFLRHSSNNLHPILPPTNVGSNT[Hyp]-NH2 (disulfide 2-7 (inferred)) [PD159] was tested, and the “EC50, CRE-luciferase assay” value was 0.037 nM.
